The source of these data is article PMC2818592.

Data set [1] addresses T1, PDGF-BB (platelet-derived growth factor B-chain homodimer) (UniProt P01127 82-190). Kind of data set: microbead sandwich assay without RCA.
Data set [2] addresses T1, PDGF-BB (platelet-derived growth factor …). Nature of the data set: optical diffraction sandwich assay with RCA and microbeads.

T1 sequence (P01127 82-190): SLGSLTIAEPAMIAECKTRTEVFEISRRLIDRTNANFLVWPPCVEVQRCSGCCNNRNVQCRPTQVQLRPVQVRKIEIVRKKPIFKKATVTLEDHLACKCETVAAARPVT

For the molecule TACTCAGGGCACTGCAAGCAATTGTGGTCCCAATGGGCTGAGTATTTTTT (structured_DNA) [capture aptamer (anti-PDGF-BB)], the binding result in data set [1] is recorded as “binds”.

B1: aptamer-primer complex (anti-PDGF-BB aptamer with 3' RCA primer) (structured_DNA)
DNA: TACTCAGGGCACTGCAAGCAATTGTGGTCCCAATGGGCTGAGTATTTTTTTTGTCCGTGCTAGAAGGAAACAGTTAC
B1: in data set [2], the binding result is “binds”.
